This assay addresses T1, TIE1 ectodomain, aa 21-760 (human, UniProt P35590-1 21-760).
T1 sequence: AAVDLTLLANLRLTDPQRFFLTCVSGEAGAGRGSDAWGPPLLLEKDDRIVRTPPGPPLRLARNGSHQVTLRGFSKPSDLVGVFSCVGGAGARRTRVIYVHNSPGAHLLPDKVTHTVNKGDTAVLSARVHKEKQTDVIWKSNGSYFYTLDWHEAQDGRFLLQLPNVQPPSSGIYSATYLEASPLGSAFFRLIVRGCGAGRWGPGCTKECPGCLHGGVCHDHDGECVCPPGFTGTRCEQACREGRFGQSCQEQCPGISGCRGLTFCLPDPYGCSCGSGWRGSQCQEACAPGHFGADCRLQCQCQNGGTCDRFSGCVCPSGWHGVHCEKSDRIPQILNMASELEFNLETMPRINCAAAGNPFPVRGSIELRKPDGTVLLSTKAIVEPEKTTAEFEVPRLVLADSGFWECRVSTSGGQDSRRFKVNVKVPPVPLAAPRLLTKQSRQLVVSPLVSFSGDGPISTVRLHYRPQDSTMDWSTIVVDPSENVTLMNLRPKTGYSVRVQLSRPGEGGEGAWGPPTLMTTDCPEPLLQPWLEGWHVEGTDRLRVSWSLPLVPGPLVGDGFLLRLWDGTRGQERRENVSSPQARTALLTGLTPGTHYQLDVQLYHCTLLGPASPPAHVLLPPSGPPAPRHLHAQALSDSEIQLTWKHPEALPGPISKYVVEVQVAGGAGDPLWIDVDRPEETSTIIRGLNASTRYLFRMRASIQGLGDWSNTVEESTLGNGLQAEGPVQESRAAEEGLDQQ
As to the kind of experiment: SPR. For orientation: In SPR one partner is held on a chip, and binding of the other changes the refractive index at the surface.

B1: Human SVEP1-Strep II recombinant protein, CCP15 to CCP24, aa 2261-2890 (70 kDa version) (domain or fragment)
chain: PLDCGKPPPIQNGFMKGENFEVGSKVQFFCNEGYELVGDSSWTCQKSGKWNKKSNPKCMPAKCPEPPLLENQLVLKELTTEVGVVTFSCKEGHVLQGPSVLKCLPSQQWNDSFPVCKIVLCTPPPLISFGVPIPSSALHFGSTVKYSCVGGFFLRGNSTTLCQPDGTWSSPLPECVPVECPQPEEIPNGIIDVQGLAYLSTALYTCKPGFELVGNTTTLCGENGHWLGGKPTCKAIECLKPKEILNGKFSYTDLHYGQTVTYSCNRGFRLEGPSALTCLETGDWDVDAPSCNAIHCDSPQPIENGFVEGADYSYGAIIIYSCFPGFQVAGHAMQTCEESGWSSSIPTCMPIDCGLPPHIDFGDCTKLKDDQGYFEQEDDMMEVPYVTPHPPYHLGAVAKTWENTKESPATHSSNFLYGTMVSYTCNPGYELLGNPVLICQEDGTWNGSAPSCISIECDLPTAPENGFLRFTETSMGSAVQYSCKPGHILAGSDLRLCLENRKWSGASPRCEAISCKKPNPVMNGSIKGSNYTYLSTLYYECDPGYVLNGTERRTCQDDKNWDEDEPICIPVDCSSPPVSANGQVRGDEYTFQKEIEYTCNEGFLLEGARSRVCLANGSWSGATPDCVPVR
In general, Kd refers to a measure of binding affinity in units of concentration. Low readings indicate tighter binding, high ones weaker binding. As to B1, the affinity, expressed as Kd, was 62.5 nM.

Values taken from doi:10.1101/2025.03.17.643633 (bioRxiv, 2025).
